Assays:
[1] = target: CD20 endogenously expressed on Raji cells (UniProt P11836); experiment: cell-based or functional assay
[2] = target: mouse LAG-3 expressed on cells (mouse) (UniProt Q61790); experiment: flow cytometry on HEK cells expressing mouse LAG-3
[3] = target: mouse LAG-3 expressed on cells (mouse) (UniProt Q61790); experiment: flow cytometry on HEK cells expressing murine LAG-3
[4] = target: human FcγRIIa (R&D Systems, 1330-CD) (human) (UniProt P12318); experiment: SPR, Biacore T200; FcγR immobilised, 500 µg/ml injected
[5] = target: human FcγRIIb/c (R&D Systems, 1875-CD) (human) (UniProt P31994); experiment: as above
[6] = target: human FcγRIIa (R&D Systems, 1330-CD) (human) (UniProt P12318); experiment: SPR, BIAcore 3000; FcγR immobilised, 500 µg/ml injected
[7] = target: human FcγRIIIa (R&D Systems, 4325-FC) (human) (UniProt P08637); experiment: SPR, Biacore T200; FcγR immobilised, 200 µg/ml injected
[8] = target: human FcγRI (R&D Systems, 1257-FC) (human) (UniProt P12314); experiment: as above
[9] = target: human FcγRIIb/c (R&D Systems, 1875-CD) (human) (UniProt P31994); experiment: SPR, BIAcore 3000; FcγR immobilised, 500 µg/ml injected
[10] = target: human FcγRI (R&D Systems, 1257-FC) (human) (UniProt P12314); experiment: SPR, BIAcore 3000; FcγR immobilised, 100 µg/ml injected

Chain of CD20 endogenously expressed on Raji cells (P11836 whole entry): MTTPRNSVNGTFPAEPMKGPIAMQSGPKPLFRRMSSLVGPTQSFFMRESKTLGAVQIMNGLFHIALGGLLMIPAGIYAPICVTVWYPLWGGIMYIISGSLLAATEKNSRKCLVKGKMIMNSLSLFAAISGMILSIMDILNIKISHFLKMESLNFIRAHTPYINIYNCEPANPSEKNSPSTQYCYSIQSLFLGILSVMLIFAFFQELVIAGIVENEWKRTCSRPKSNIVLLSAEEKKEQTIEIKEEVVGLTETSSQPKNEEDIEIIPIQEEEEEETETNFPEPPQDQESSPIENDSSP
Chain of human FcγRIIa (R&D Systems, 1330-CD) (human) (P12318 36-218 limits assumed): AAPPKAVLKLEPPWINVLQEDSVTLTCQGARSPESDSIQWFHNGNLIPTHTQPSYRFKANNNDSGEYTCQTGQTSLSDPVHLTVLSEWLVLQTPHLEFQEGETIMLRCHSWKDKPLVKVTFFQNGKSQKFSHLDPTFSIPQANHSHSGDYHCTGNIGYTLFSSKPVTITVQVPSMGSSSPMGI
Chain of human FcγRIIb/c (R&D Systems, 1875-CD) (human) (P31994 46-217 limits assumed): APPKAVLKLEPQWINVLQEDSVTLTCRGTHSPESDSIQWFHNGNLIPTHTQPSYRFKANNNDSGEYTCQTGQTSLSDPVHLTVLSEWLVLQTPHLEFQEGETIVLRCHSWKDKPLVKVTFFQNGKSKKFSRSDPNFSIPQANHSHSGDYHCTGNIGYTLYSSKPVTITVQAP
Chain of mouse LAG-3 expressed on cells (mouse) (Q61790 24-521 limits assumed): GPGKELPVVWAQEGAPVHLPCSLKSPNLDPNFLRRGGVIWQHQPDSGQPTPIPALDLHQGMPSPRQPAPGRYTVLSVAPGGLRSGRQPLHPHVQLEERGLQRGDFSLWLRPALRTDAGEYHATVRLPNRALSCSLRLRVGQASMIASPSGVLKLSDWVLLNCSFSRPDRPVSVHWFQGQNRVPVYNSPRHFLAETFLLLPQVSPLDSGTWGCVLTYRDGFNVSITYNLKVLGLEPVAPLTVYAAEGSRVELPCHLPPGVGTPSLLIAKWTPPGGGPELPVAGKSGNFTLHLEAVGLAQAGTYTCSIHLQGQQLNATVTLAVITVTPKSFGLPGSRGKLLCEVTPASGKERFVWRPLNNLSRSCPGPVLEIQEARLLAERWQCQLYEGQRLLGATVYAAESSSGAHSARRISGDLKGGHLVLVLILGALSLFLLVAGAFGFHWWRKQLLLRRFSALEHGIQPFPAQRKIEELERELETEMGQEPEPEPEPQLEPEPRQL
Chain of human FcγRI (R&D Systems, 1257-FC) (human) (P12314 16-288 limits assumed): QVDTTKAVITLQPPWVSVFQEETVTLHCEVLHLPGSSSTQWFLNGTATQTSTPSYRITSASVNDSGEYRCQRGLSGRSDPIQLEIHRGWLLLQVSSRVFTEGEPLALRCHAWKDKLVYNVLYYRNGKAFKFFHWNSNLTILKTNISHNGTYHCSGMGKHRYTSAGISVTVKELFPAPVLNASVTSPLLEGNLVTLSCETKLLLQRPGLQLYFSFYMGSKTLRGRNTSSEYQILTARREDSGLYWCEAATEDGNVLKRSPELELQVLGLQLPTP
Chain of human FcγRIIIa (R&D Systems, 4325-FC) (human) (P08637 17-208 limits assumed): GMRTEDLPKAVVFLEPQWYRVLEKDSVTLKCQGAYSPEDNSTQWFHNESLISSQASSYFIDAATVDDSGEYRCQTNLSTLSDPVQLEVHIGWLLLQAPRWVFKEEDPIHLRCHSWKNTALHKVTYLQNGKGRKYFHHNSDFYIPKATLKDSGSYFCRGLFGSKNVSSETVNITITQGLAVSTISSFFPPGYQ

| binding response at end of association (RU) [4] [RU] | binding response at end of association (RU) [5] [RU] | binding response at end of association (RU) [6] [RU] | binding response at end of association (RU) [7] [RU] | binding response at end of association (RU) [8] [RU] | Substance | other results |
| --- | --- | --- | --- | --- | --- | --- |
|  |  |  |  |  | anti-CD20 antibody Rituximab (generic version, IgG1 format) | ADCC, LDH release, maximum lysis of LAG-3 expressing Raji cells [1]: 40%; ADCC, LDH release, maximum lysis of PD-L1 expressing Raji cells [1]: 40%; CDC, LDH release, maximum lysis of PD-L1 expressing Raji cells [1]: < 60% |
|  |  |  |  |  | benchmark anti-mouse LAG-3 mAb C9B7W (2B Scientific, BE0174-50MG) (antibody) | EC50 [2]: 79 nM; fold poorer affinity (EC50) than the Fcabs [2]: 17 fold; EC50 [3]: 27 nM |
| 9.7 | 7.4 | 9 | 1.9 | 0 | monoclonal IgG2 isotype mAb to an irrelevant target (antibody) |  |
| 4.3 | 15.1 | 8 | 3.1 | 9 | monoclonal IgG4 isotype mAb to an irrelevant target (antibody) | binding response at end of association (RU) [9]: 9 RU; binding response at end of association (RU) [10]: 8 RU |
|  |  | 7 |  |  | mouse IgG1 (Sigma, P5305) (antibody) |  |
